“Also recorded” adds a separate entry of the source. Where no end group is shown, it is not given here.
Key:
CypA [1] = biological target: T1, CypA (Homo sapiens, UniProt P62937); assay: 15N TROSY CPMG-RD of ligand-saturated CypA; type: biochemical
CypA [2] = biological target: T1, CypA; details: percent weaker than GSFGPDLRAGD; cited from earlier work
CypA [3] = biological target: T1, CypA; details: cited from earlier work
[4] = 2H,15N CypA, saturating TA-peptide (6 mM), 10 °C

T1 sequence (P62937 whole entry): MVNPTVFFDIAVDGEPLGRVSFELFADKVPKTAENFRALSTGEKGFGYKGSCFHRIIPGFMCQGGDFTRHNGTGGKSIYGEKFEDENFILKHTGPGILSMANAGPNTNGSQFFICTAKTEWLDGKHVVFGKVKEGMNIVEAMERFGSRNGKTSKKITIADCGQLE

Substance	chemical exchange rate throughout most of the active site (CypA [1]; [4])	rate of motions, loop residues ~65–78 and ~108–110 (CypA [1]; [4])	active site dynamics as compared to CypA:peptide complex (CypA [1]; 2H,15N CypA, saturating TA-peptide, much of the active site)	binding relative to the standard GSFGPDLRAGD peptide (weaker) (CypA [2])	isomerization by CypA (CypA [3])	exchange throughout most of the active site (CsA) (CypA [1]; 2H,15N CypA (0.5 mM), CsA 0.7 mM, 10 °C)
TA-peptide: substrate for which the G-P peptide bond in the peptide is replaced by a thioamide bond (GSFGPDLRAGD; also: G-P peptide bond replaced by thioamide bond)	~ 300 s^−1	~ 2000 s^−1	slowed dramatically	~ 50%	not isomerized by CypA	
cyclosporine A [CsA, reference compound]						quenched by CsA throughout most of the active site; also recorded: completely quenched

Reference: PMC4801485 (Biochemistry, 2015)
